Results published in article PMC4118958, “Association of BLM and BRCA1 during Telomere Maintenance in ALT Cells” (PLoS ONE, 2014).

Molecular target: BLM helicase, mutated in Bloom's syndrome (human (endogenous in U2OS), UniProt P54132 1-1417)
Assay: cell-based or functional assay

BLM helicase, mutated in Bloom's syndrome, sequence (P54132 whole entry, change not shown): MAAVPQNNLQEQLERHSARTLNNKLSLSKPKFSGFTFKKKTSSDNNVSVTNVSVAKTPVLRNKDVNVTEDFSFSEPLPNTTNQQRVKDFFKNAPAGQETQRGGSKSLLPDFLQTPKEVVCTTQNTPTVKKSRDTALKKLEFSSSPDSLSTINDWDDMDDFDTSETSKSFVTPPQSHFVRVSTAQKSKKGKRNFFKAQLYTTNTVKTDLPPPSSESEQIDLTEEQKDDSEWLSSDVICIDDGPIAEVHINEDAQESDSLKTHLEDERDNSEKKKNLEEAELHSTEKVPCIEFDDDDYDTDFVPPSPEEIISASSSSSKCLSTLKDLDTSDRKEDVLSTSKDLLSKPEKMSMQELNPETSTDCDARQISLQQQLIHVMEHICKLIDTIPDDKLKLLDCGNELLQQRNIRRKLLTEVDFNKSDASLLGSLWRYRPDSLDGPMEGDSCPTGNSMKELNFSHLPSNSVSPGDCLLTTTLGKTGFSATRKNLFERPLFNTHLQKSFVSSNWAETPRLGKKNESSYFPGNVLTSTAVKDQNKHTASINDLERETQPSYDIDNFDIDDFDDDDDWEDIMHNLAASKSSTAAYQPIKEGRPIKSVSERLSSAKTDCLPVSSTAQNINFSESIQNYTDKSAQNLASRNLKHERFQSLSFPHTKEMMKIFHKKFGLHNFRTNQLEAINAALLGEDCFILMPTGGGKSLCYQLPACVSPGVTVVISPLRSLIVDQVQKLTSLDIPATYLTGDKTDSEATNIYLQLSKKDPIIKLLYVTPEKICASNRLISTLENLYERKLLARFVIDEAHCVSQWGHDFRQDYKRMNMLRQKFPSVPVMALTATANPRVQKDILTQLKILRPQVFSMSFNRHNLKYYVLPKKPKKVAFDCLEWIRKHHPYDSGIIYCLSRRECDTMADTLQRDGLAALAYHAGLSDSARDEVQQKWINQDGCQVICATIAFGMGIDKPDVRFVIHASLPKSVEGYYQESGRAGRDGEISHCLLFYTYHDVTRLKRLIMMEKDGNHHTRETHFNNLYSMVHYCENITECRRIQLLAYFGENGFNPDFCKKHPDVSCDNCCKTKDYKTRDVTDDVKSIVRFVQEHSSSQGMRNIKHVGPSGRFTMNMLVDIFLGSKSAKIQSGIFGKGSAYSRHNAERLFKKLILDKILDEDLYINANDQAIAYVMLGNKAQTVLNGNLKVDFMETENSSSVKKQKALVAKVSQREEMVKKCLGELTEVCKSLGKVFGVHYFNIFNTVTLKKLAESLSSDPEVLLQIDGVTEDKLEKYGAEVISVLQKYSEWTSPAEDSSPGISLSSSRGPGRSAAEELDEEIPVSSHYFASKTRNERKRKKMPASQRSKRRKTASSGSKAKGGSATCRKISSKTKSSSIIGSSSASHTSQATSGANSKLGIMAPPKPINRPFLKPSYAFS

fold stimulation of BLM helicase activity by 3 nM full-length BRCA1 on a non-telomeric fork substrate: ~1.9 fold | fold stimulation of BLM helicase activity by 3 nM full-length BRCA1 on the fork substrate with two telomeric repeats: ~3.6 fold | initial unwinding rate of BLM (1.2 nM) on the telomeric fork in the presence of 3 nM BRCA1, fold increase: 1.7 fold
B1: BRCA1 tumor suppressor (natural protein, human (endogenous in U2OS), UniProt P38398 1-1863, looked up)
chain: MDLSALRVEEVQNVINAMQKILECPICLELIKEPVSTKCDHIFCKFCMLKLLNQKKGPSQCPLCKNDITKRSLQESTRFSQLVEELLKIICAFQLDTGLEYANSYNFAKKENNSPEHLKDEVSIIQSMGYRNRAKRLLQSEPENPSLQETSLSVQLSNLGTVRTLRTKQRIQPQKTSVYIELGSDSSEDTVNKATYCSVGDQELLQITPQGTRDEISLDSAKKAACEFSETDVTNTEHHQPSNNDLNTTEKRAAERHPEKYQGSSVSNLHVEPCGTNTHASSLQHENSSLLLTKDRMNVEKAEFCNKSKQPGLARSQHNRWAGSKETCNDRRTPSTEKKVDLNADPLCERKEWNKQKLPCSENPRDTEDVPWITLNSSIQKVNEWFSRSDELLGSDDSHDGESESNAKVADVLDVLNEVDEYSGSSEKIDLLASDPHEALICKSERVHSKSVESNIEDKIFGKTYRKKASLPNLSHVTENLIIGAFVTEPQIIQERPLTNKLKRKRRPTSGLHPEDFIKKADLAVQKTPEMINQGTNQTEQNGQVMNITNSGHENKTKGDSIQNEKNPNPIESLEKESAFKTKAEPISSSISNMELELNIHNSKAPKKNRLRRKSSTRHIHALELVVSRNLSPPNCTELQIDSCSSSEEIKKKKYNQMPVRHSRNLQLMEGKEPATGAKKSNKPNEQTSKRHDSDTFPELKLTNAPGSFTKCSNTSELKEFVNPSLPREEKEEKLETVKVSNNAEDPKDLMLSGERVLQTERSVESSSISLVPGTDYGTQESISLLEVSTLGKAKTEPNKCVSQCAAFENPKGLIHGCSKDNRNDTEGFKYPLGHEVNHSRETSIEMEESELDAQYLQNTFKVSKRQSFAPFSNPGNAEEECATFSAHSGSLKKQSPKVTFECEQKEENQGKNESNIKPVQTVNITAGFPVVGQKDKPVDNAKCSIKGGSRFCLSSQFRGNETGLITPNKHGLLQNPYRIPPLFPIKSFVKTKCKKNLLEENFEEHSMSPEREMGNENIPSTVSTISRNNIRENVFKEASSSNINEVGSSTNEVGSSINEIGSSDENIQAELGRNRGPKLNAMLRLGVLQPEVYKQSLPGSNCKHPEIKKQEYEEVVQTVNTDFSPYLISDNLEQPMGSSHASQVCSETPDDLLDDGEIKEDTSFAENDIKESSAVFSKSVQKGELSRSPSPFTHTHLAQGYRRGAKKLESSEENLSSEDEELPCFQHLLFGKVNNIPSQSTRHSTVATECLSKNTEENLLSLKNSLNDCSNQVILAKASQEHHLSEETKCSASLFSSQCSELEDLTANTNTQDPFLIGSSKQMRHQSESQGVGLSDKELVSDDEERGTGLEENNQEEQSMDSNLGEAASGCESETSVSEDCSGLSSQSDILTTQQRDTMQHNLIKLQQEMAELEAVLEQHGSQPSNSYPSIISDSSALEDLRNPEQSTSEKAVLTSQKSSEYPISQNPEGLSADKFEVSADSSTSKNKEPGVERSSPSKCPSLDDRWYMHSCSGSLQNRNYPSQEELIKVVDVEEQQLEESGPHDLTETSYLPRQDLEGTPYLESGISLFSDDPESDPSEDRAPESARVGNIPSSTSALKVPQLKVAESAQSPAAAHTTDTAGYNAMEESVSREKPELTASTERVNKRMSMVVSGLTPEEFMLVYKFARKHHITLTNLITEETTHVVMKTDAEFVCERTLKYFLGIAGGKWVVSYFWVTQSIKERKMLNEHDFEVRGDVVNGRNHQGPKRARESQDRKIFRGLEICCYGPFTNMPTDQLEWMVQLCGASVVKELSSFTLGTGVHPIVVVQPDAWTEDNGFHAIGQMCEAPVVTREWVLDSVALYQCQELDTYLIPQIPHSHY
